These results are taken from article PMC8760489 (The Journal of Biological Chemistry, 2021).

The assay has as its target T1, His6-TviD (Salmonella enterica serovar Typhi, UniProt Q04974 1-831).
T1 sequence: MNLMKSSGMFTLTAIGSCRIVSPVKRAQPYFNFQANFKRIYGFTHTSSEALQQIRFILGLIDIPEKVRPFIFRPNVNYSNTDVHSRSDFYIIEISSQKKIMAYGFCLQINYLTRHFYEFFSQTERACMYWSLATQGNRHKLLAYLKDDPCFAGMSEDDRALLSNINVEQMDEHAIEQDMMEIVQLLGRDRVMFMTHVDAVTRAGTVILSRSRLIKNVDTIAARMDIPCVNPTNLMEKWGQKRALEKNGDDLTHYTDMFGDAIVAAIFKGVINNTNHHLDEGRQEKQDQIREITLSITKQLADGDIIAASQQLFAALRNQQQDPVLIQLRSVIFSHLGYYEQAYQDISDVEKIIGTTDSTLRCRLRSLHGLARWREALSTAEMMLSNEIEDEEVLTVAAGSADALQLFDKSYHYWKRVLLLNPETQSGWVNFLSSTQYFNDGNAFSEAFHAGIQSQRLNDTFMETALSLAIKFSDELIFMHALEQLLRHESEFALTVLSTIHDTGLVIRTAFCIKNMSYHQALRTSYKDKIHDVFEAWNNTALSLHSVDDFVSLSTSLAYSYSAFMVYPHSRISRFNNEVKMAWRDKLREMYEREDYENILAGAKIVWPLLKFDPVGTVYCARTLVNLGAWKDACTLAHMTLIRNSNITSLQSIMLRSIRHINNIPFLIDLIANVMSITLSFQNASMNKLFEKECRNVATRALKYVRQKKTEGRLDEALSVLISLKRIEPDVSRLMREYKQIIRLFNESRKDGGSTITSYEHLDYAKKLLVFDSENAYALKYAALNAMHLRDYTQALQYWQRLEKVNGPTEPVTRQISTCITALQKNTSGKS
Kind of assay: […].

B1: TviE-FLAG (enzyme)
chain: MITQEEKLAALGKTCLTLKQEKKLAQAVALIDSELPTEALTSLAMLKKAEFLHDVNETERAYALYETLIAQNNDEARYEYARRLYNTGLAKDAQLILKKVSNGVQKKYNNYLGKINKICDLLERLEGKAIPVGTNTCIIAMKHAILFYRNRQPRQLPVGSFGRLALCTGSLGSGGAERQISRLAIEIARKYRQKGKIGGLKVEEPVELIIRSLTPELRQDFFLKEVLEEQVEVLEIAKITGNLFDDATIESPELRLLLSHLPPVCKYGIKHLVPHLCERKLDYLSVWQDSACLMIALAALIAGVPRIQLGLRGLPPVVRKRLFKPEYEPLYQALAVVPGVDFMSNNHCVTRHYADWLKLEAKHFQVVYNGVLPPSTEPSSEVPHKIWQQFTQKTQDADTTIGGVFRFVGDKNPFAWIDFAARYLQHHPATRFVLVGDGDLRAEAQKRAEQLGILERILFVGASRDVGYWLQKMNVFILFSRYEGLPNVLIEAQMVGVPVISTPAGGSAECFIEGVSGFILDDAQTVNLDQACRYAEKLVNLWRSRTGICQQTQSFLQERFTVEHMVGTFVKTIASQPR
Consider B1, for which the binding result is “binds”.
